US20260274944A1

Target: RAGE (the receptor of interest on CHO cell lines; human or mouse not told)
Test: cell-based or functional assay

cellular delivery of FLuc mRNA (luminescence), fold against control LNP: 3 to 5 fold
B1: VHH 5-LNP (protein)
VHH: EVQLVESGGGLVQPGGSLRLSCAASGTIFSLNPMGWYRQAPGKQLELVALISDSGTANYADFVRGRFTISRDTTKKTLYLQMNSLEPEDTAVYYCRSTFAAGNFYWGQGTQVTVSS
modifications: here or on the partner: BCN (bicyclo[6.1.0]nonyne) selectively conjugated to the VHH and clicked to DOPE-PEG2000-N3 on the surface of a lipid nanoparticle loaded with luciferase mRNA
